Reference: patent US9731036 (dated 2017)

B1: CEACAM1-Ig fusion protein (extracellular portion of CEACAM1 fused to the Fc portion of human IgG1) (Fc fusion, UniProt P13688 35-428, looked up)
chain: QLTTESMPFNVAEGKEVLLLVHNLPQQLFGYSWYKGERVDGNRQIVGYAIGTQQATPGPANSGRETIYPNASLLIQNVTQNDTGFYTLQVIKSDLVNEEATGQFHVYPELPKPSISSNNSNPVEDKDAVAFTCEPETQDTTYLWWINNQSLPVSPRLQLSNGNRTLTLLSVTRNDTGPYECEIQNPVSANRSDPVTLNVTYGPDTPTISPSDTYYRPGANLSLSCYAASNPPAQYSWLINGTFQQSTQELFIPNITVNNSGSYTCHANNSVTGCNRTTVKTIIVTELSPVVAKPQIKASKTTVTGDKDSVNLTCSTNDTGISIRWFFKNQSLPSSERMKLSQGNTTLSINPVKREDAGTYWCEVFNPISKNQSDPIMLNVNYNALPQENGLSPG
notes: extracellular domain; Made in COS-7 cells, purified on protein G. A silent nucleotide change (A885G, glycine 281 unchanged) removes a BamHI site; also called CCM1-Ig; soluble CEACAM1-Ig; not shown: Fc portion of human IgG1

How the values were obtained:
[1] = target: T1, CEACAM1 protein (CD66a), whole, on cells (human, UniProt P13688 35-526); test: cell-based or functional assay
T1 construct: whole, on cells; also called CCM1
T1 sequence (looked up): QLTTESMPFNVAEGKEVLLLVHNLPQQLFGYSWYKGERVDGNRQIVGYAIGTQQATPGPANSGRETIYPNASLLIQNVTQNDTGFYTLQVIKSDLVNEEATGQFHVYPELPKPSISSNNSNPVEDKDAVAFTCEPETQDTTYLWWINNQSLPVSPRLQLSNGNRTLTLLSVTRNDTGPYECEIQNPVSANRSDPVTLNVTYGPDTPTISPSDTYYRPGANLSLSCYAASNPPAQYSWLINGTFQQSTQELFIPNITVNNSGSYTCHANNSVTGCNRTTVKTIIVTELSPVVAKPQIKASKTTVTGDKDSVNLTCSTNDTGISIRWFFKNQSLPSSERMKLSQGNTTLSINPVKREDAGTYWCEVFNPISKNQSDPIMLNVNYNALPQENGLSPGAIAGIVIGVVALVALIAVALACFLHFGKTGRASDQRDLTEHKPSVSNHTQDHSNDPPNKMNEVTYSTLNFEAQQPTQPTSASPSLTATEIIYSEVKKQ

[2] = target: T2, CCM1-R43A (CEACAM1 with 43R changed to 43A) (human, UniProt P13688 35-526); test: flow cytometry on 721.221 transfectants
T2 construct: whole, on cells; Expression lower than that of the other transfectants; also called CEACAM1-R43A
T2 sequence (looked up): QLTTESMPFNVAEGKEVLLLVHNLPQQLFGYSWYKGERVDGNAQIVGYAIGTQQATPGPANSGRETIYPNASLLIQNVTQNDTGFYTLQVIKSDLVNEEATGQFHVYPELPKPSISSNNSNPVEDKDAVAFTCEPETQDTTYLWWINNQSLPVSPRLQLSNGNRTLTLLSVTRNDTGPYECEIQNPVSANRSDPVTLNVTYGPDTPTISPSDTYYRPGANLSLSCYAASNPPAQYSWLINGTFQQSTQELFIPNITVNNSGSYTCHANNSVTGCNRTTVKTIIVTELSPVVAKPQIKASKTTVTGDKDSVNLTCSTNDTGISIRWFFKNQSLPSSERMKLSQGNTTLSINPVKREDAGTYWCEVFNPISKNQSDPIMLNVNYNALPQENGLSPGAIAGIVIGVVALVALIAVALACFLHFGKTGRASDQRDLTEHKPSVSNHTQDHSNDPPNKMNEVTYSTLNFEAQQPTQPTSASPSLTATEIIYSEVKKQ
Excerpt: (§1) The staining of the secondary reagent FITC-conjugated goat anti-mouse F(ab_)2 of each cell type was used as background (_). The y-axis indicates the median fluorescence intensity (MFI). […] The y-axis indicates the median fluorescence intensity (MFI). […] The E:T cell ratio was 2:1.
(§2) Specificity of CEACAM1 Binding to CEACAM6 is Controlled by the Presence of Both 43R and 44Q Residues To determine whether both residues are required for binding, the amino acid residues in positions 43 and 44 in CEACAM1 (contains 43R44Q) and CEACAM6 (contains 43S44L) were mutated. Using site-directed mutagenesis in the CEACAM1, the 43R residue was changed to 43A (CCM1-R43A) and the 44Q residue was changed to 44L (CCM1-Q44L). In CEACAM6, the 43S was changed to 43R (CCM6-S43R) and 44L was changed to 44Q (CCM6-L44Q). All mutants were generated as described in Materials and Methods and stably transfected into 0.221 cells. The expression level was monitored by Kat4c mAb, and conformation was monitored by 5F4 mAb (FIG. 7A). […] Similar results were obtained when both 44Q and 43R residues in CEACAM1 were mutated (FIG. 5).

[3] = target: T3, CCM1-Q44L (CEACAM1 with 44Q changed to 44L) (human, UniProt P13688 35-526); test: flow cytometry on 721.221 transfectants
T3 construct: whole, on cells; also called CEACAM1-Q44L
T3 sequence (looked up): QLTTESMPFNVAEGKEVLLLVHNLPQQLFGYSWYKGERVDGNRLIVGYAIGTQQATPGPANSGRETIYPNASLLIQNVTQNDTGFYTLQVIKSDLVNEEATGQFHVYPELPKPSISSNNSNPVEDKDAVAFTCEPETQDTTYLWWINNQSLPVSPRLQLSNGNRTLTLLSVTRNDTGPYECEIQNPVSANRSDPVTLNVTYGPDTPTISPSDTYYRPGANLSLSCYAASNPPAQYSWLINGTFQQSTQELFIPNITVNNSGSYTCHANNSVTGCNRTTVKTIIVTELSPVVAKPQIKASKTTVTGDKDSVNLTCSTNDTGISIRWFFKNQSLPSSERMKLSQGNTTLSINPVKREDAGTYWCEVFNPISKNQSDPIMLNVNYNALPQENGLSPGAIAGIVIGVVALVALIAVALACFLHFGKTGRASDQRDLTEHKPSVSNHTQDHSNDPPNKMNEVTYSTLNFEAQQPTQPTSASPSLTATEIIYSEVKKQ
Excerpt: as §1, §2

[4] = target: T4, CCM1-RQ43,44SL (CEACAM1 with S and L at positions 43 and 44 instead of R and Q) (human, UniProt P13688 35-526); test: flow cytometry on 721.221 transfectants
T4 construct: whole, on cells; also called CEACAM 1-RQ43,44SL
T4 sequence (looked up): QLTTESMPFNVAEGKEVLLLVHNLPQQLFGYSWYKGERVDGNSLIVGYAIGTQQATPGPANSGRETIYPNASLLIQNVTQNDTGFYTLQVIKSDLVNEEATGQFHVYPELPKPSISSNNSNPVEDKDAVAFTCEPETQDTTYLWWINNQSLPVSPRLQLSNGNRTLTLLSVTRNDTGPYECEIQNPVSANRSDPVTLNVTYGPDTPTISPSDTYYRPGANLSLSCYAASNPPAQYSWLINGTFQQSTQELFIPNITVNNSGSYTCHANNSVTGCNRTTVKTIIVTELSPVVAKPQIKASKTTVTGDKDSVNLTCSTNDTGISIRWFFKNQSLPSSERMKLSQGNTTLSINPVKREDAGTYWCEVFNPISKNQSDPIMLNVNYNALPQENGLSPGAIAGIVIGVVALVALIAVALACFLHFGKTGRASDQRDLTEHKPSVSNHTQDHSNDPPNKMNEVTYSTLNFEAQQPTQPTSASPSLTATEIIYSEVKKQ
Excerpt: as §1, §2

[5] = target: B1; test: flow cytometry on 721.221 transfectants
Excerpt: as §1, §2

Molecule	binding result [5]	further results
mAb Kat4c (DakoCytomation), directed against CEACAM1, -5, -6, and -8 (antibody)	–	intracellular IFN-gamma staining of the NKT clone after cross-linking with Kat4c (fold above background) [1]: 4.5
B1	–	binding result [2]: no binding; binding result [3]: no binding; binding result [4]: no binding
CCM6-TailCCM1 (entire extracellular portion of CEACAM6 fused to the transmembrane and tail portions of CEACAM1) (receptor, human, UniProt P40199 35-320, looked up, extracellular domain;domain: transmembrane and tail portions) KLTIESTPFNVAEGKEVLLLAHNLPQNRIGYSWYKGERVDGNSLIVGYVIGTQQATPGPAYSGRETIYPNASLLIQNVTQNDTGFYTLQVIKSDLVNEEATGQFHVYPELPKPSISSNNSNPVEDKDAVAFTCEPEVQNTTYLWWVNGQSLPVSPRLQLSNGNMTLTLLSVKRNDAGSYECEIQNPASANRSDPVTLNVLYGPDVPTISPSKANYRPGENLNLSCHAASNPPAQYSWFINGTFQQSTQELFIPNITVNNSGSYMCQAHNSATGLNRTTVTMITVSGAIAGIVIGVVALVALIAVALACFLHFGKTGRASDQRDLTEHKPSVSNHTQDHSNDPPNKMNEVTYSTLNFEAQQPTQPTSASPSLTATEIIYSEVKKQ	no binding	–
CCM6-SL43,44RQ (CEACAM6 with R and Q at positions 43 and 44 instead of S and L) (receptor, human, UniProt P40199 35-320, looked up, whole, on cells; also called CEACAM6-SL43,44RQ) KLTIESTPFNVAEGKEVLLLAHNLPQNRIGYSWYKGERVDGNRQIVGYVIGTQQATPGPAYSGRETIYPNASLLIQNVTQNDTGFYTLQVIKSDLVNEEATGQFHVYPELPKPSISSNNSNPVEDKDAVAFTCEPEVQNTTYLWWVNGQSLPVSPRLQLSNGNMTLTLLSVKRNDAGSYECEIQNPASANRSDPVTLNVLYGPDVPTISPSKANYRPGENLNLSCHAASNPPAQYSWFINGTFQQSTQELFIPNITVNNSGSYMCQAHNSATGLNRTTVTMITVSG	binds	–
CCM6-S43R (CEACAM6 with 43S changed to 43R) (receptor, human, UniProt P40199 35-320, looked up, whole, on cells; also called CEACAM6-S43R) KLTIESTPFNVAEGKEVLLLAHNLPQNRIGYSWYKGERVDGNRLIVGYVIGTQQATPGPAYSGRETIYPNASLLIQNVTQNDTGFYTLQVIKSDLVNEEATGQFHVYPELPKPSISSNNSNPVEDKDAVAFTCEPEVQNTTYLWWVNGQSLPVSPRLQLSNGNMTLTLLSVKRNDAGSYECEIQNPASANRSDPVTLNVLYGPDVPTISPSKANYRPGENLNLSCHAASNPPAQYSWFINGTFQQSTQELFIPNITVNNSGSYMCQAHNSATGLNRTTVTMITVSG	no binding	–
CCM6-L44Q (CEACAM6 with 44L changed to 44Q) (receptor, human, UniProt P40199 35-320, looked up, whole, on cells; also called CEACAM6-L44Q) KLTIESTPFNVAEGKEVLLLAHNLPQNRIGYSWYKGERVDGNSQIVGYVIGTQQATPGPAYSGRETIYPNASLLIQNVTQNDTGFYTLQVIKSDLVNEEATGQFHVYPELPKPSISSNNSNPVEDKDAVAFTCEPEVQNTTYLWWVNGQSLPVSPRLQLSNGNMTLTLLSVKRNDAGSYECEIQNPASANRSDPVTLNVLYGPDVPTISPSKANYRPGENLNLSCHAASNPPAQYSWFINGTFQQSTQELFIPNITVNNSGSYMCQAHNSATGLNRTTVTMITVSG	no binding	–
